This is an account of results in patent US20030224390A1, “Method of identifying conformation-sensitive binding peptides and uses thereof” (Karo Bio AB, priority 2000, published 2003).

To fix the notation:
B1: B3E2 (peptide)
chain: MKLLSSIEQACDICRLKKLKCSKEKPKCAKCLKNNWECRYSPKTKRSPLTRAHLTEVESRLERLEQLFLLIFPREDLDMILKMDSLQDIKALLTGLFVQDNVNKDAVTDRLASVETDMPLTLRQHRISATSSSEESSNKGQRQLTVSEFGGSVLLRELLCCYDALEPTTTR
B2: B6F3 (peptide)
chain: MKLLSSIEQACDICRLKKLKCSKEKPKCAKCLKNNWECRYSPKTKRSPLTRAHLTEVESRLERLEQLFLLIFPREDLDMILKMDSLQDIKALLTGLFVQDNVNKDAVTDRLASVETDMPLTLRQHRISATSSSEESSNKGQRQLTVSEFFRATHLLRLLRTDSALDLQPS
B3: B6C4 (peptide)
chain: MKLLSSIEQACDICRLKKLKCSKEKPKCAKCLKNNWECRYSPKTKRSPLTRAHLTEVESRLERLEQLFLLIFPREDLDMILKMDSLQDIKALLTGLFVQDNVNKDAVTDRLASVETDMPLTLRQHRISATSSSEESSNKGQRQLTVSEFDRSSILVSLLSMVETLDLQPS
B4: B4F6 (peptide)
chain: MKLLSSIEQACDICRLKKLKCSKEKPKCAKCLKNNWECRYSPKTKRSPLTRAHLTEVESRLERLEQLFLLIFPREDLDMILKMDSLQDIKALLTGLFVQDNVNKDAVTDRLASVETDMPLTLRQHRISATSSSEESSNKGQRQLTVSEFSGVPILHMLLMLPSSLDLQPS
B5: B5A2 (peptide)
chain: B3 chain with D150G, R151C, S153A, V156R, S157Y, S160R, M161S, V162P, E163R, T164D
B6: B2G1 (peptide)
chain: B2 chain with A152L, T153R, H154R, L156D, R160Q, T161D, D162S, S163F, A164L
B7: B6A1 (peptide)
chain: MKLLSSIEQACDICRLKKLKCSKEKPKCAKCLKNNWECRYSPKTKRSPLTRAHLTEVESRLERLEQLFLLIFPREDLDMILKMDSLQDIKALLTGLFVQDNVNKDAVTDRLASVETDMPLTLRQHRISATSSSEESSNKGQRQLTVSEFTGSRLLLKLLRFPDSSTCSQA
B8: B5H10 (peptide)
chain: MKLLSSIEQACDICRLKKLKCSKEKPKCAKCLKNNWECRYSPKTKRSPLTRAHLTEVESRLERLEQLFLLIFPREDLDMILKMDSLQDIKALLTGLFVQDNVNKDAVTDRLASVETDMPLTLRQHRISATSSSEESSNKGQRQLTVSEFSPPSSLLALLLGGKSLEPLPIRYKNVKRQFTSNSRGSVDLQPS
B9: B1A1 (peptide)
chain: MKLLSSIEQACDICRLKKLKCSKEKPKCAKCLKNNWECRYSPKTKRSPLTRAHLTEVESRLERLEQLFLLIFPREDLDMILKMDSLQDIKALLTGLFVQDNVNKDAVTDRLASVETDMPLTLRQHRISATSSSEESSNKGQRQLTVSEFCPVGLLVHLLMQ
B10: B1G8 (peptide)
chain: B9 chain with C150T, P151S, G153S, L154R, H157T, M160L
B11: B5G11, P04386 1-147 (peptide)
chain: MKLLSSIEQACDICRLKKLKCSKEKPKCAKCLKNNWECRYSPKTKRSPLTRAHLTEVESRLERLEQLFLLIFPREDLDMILKMDSLQDIKALLTGLFVQDNVNKDAVTDRLASVETDMPLTLRQHRISATSSSEESSNKGQRQLTVSEFRSSVFEQMYLCTGGSLDLQPS
modifications: not checked
B12: B8E9, P04386 1-147 (peptide)
chain: MKLLSSIEQACDICRLKKLKCSKEKPKCAKCLKNNWECRYSPKTKRSPLTRAHLTEVESRLERLEQLFLLIFPREDLDMILKMDSLQDIKALLTGLFVQDNVNKDAVTDRLASVETDMPLTLRQHRISATSSSEESSNKGQRQLTVSEFQQCMCAEVKSWLGGSLDLQPS
modifications: not checked
B13: B8H3, P04386 1-147 (peptide)
chain: MKLLSSIEQACDICRLKKLKCSKEKPKCAKCLKNNWECRYSPKTKRSPLTRAHLTEVESRLERLEQLFLLIFPREDLDMILKMDSLQDIKALLTGLFVQDNVNKDAVTDRLASVETDMPLTLRQHRISATSSSEESSNKGQRQLTVSEFHSRLRVEVVSWGIGSTCSQANSGRISYDL
modifications: not checked

Changes are numbered by the printed parent chain.

One series deals with T1, estrogen receptor (ER) α as a carboxy-terminal fusion to the Gal4 activation domain (yeast, UniProt P03372 1-595, limits assumed).
T1 sequence (looked up): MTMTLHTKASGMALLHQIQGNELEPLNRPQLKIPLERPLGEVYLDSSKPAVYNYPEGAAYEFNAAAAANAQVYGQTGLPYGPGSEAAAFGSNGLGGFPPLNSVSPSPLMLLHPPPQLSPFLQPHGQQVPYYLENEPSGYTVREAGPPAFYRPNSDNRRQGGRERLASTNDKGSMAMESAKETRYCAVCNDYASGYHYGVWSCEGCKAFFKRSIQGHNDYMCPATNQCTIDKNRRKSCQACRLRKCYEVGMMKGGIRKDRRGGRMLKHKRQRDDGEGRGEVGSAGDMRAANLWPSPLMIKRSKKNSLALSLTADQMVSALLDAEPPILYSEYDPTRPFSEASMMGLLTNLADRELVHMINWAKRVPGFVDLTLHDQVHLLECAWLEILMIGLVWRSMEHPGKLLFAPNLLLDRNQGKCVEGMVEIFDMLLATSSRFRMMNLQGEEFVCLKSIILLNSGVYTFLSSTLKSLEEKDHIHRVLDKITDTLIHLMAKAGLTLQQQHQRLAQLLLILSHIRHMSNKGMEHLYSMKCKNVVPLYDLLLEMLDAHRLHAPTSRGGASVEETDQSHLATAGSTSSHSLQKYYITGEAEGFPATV
Description: cell-based or functional assay.
Details: not given
As to B1, the “fold induction of β-galactosidase by estradiol, yeast two-hybrid” value was determined as 3 fold.
The same measure, in the same setting: the figure for B2 is 3 fold.
Same read-out and setting: the figure for B3 is at least 2 fold; for B4 it is 5 fold; for B5 it is 2.5 fold.
The same measure, in the same setting: the result for B6 reads 12 fold; that for B7, 3.5 fold.
With B8, the “fold induction of β-galactosidase by estradiol, yeast two-hybrid” value amounted to 4.5 fold.
Still for that read-out and setting: the result for B9 reads 11 fold; that for B10, 6 fold.

The target of another series is T2, Gal4 transcriptional activation domain (AD) fused in frame with AR (pGAD-C2) (yeast), P10275.
T2 chain: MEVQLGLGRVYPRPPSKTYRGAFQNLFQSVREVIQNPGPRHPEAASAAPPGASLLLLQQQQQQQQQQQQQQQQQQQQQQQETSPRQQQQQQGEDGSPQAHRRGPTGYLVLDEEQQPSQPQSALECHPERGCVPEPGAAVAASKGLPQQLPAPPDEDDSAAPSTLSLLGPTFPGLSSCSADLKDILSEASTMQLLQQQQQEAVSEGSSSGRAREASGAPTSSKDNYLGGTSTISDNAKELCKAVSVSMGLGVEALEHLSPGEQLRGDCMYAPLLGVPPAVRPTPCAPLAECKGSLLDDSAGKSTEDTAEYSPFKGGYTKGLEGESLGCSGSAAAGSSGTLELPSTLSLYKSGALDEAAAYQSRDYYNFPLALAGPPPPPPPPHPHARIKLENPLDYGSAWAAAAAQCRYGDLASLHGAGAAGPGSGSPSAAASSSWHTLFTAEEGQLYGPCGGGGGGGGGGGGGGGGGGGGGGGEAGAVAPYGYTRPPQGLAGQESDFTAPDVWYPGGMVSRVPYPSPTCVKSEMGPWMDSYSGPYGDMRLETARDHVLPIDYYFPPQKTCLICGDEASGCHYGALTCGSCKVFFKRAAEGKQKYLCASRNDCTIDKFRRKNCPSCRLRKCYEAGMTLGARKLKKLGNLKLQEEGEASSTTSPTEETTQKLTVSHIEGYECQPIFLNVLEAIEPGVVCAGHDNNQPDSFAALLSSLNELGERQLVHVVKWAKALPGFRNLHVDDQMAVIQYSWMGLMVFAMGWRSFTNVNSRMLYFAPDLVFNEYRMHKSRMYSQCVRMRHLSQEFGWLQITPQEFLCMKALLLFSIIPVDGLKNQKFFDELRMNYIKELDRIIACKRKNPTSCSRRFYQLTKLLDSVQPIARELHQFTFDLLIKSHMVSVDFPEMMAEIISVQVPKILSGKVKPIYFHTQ
Put plainly: cell-based or functional assay.
Details: not given
As for B11, the Fold induction, yeast two-hybrid is 6 fold; the β-galactosidase activity, yeast two-hybrid; CPA came to 0.973; the β-galactosidase activity, yeast two-hybrid; DHT was 3.96; the β-galactosidase activity, yeast two-hybrid; No Lig turned out to be 0.638. In addition, the β-galactosidase activity, yeast two-hybrid; RU is 0.9.
Taken in the same sequence, the figures for B12 were 4 fold, 0.563, 1.75, 0.499 and 0.8.
In turn, B13 showed a Fold induction, yeast two-hybrid of 22 fold; a β-galactosidase activity, yeast two-hybrid; CPA of 0.393; a β-galactosidase activity, yeast two-hybrid; DHT of 3.81; a β-galactosidase activity, yeast two-hybrid; No Lig of 0.174. Moreover, the β-galactosidase activity, yeast two-hybrid; RU came out at 0.

A further series deals with T3, pVP16-AR (VP16 activation domain fused to androgen receptor), P10275.
T3 chain: T2 chain
Description: cell-based or functional assay.
Details: not given
With B11, the normalized luciferase activity, mammalian two-hybrid; CYP. was found to be 4.46; the normalized luciferase activity, mammalian two-hybrid; DHT came to 15.8; the normalized luciferase activity, mammalian two-hybrid; MPA stood at 8.03; the normalized luciferase activity, mammalian two-hybrid; RU486 amounted to 0.105. This molecule had a normalized luciferase activity, mammalian two-hybrid; no compound of 0.0503.
Taken in the same sequence, the figures for B12 were 16, 19.6, 18.5, 10.2 and 0.209.
In turn, B13 returned a normalized luciferase activity, mammalian two-hybrid; CYP. of 10.5; a normalized luciferase activity, mammalian two-hybrid; DHT of 11.6; a normalized luciferase activity, mammalian two-hybrid; MPA of 11.3; a normalized luciferase activity, mammalian two-hybrid; RU486 of 3.88. Also, the normalized luciferase activity, mammalian two-hybrid; no compound was determined as 0.132.

A further series addresses T4, estrogen receptor (ER) α (Homo sapiens, UniProt P03372).
T4 construct: expressed in transfected cells; host or cells: Saccharomyces cerevisiae PJ69-α
T4 sequence (P03372 1-595): T1 sequence (looked up)
Description: Yeast two-hybrid screening of LXXLL peptide library, ligand induced β-galactosidase activity (FIG. 1, Table 501). Particulars: with and without estradiol. It counts as cell-based. The source says:
A directed peptide library (X5LXXLLX5, SEQ ID NO:264) containing the LXXLL motif (previously identified as common in peptides binding estrogen receptor) as a carboxy-terminal fusion to the Gal4 DNA binding domain was constructed with an overall complexity of […] independent peptides. The LXXLL motif library peptides were encoded by the degenerate DNA sequence (NNK)5TTA(NNK)2(TTA)2(NNK)5 (SEQ ID NO:265); TTA is the preferred Leu codon in yeast. NNK encodes a stop codon so a few of the peptides generated will be shorter than 15 a.a. The shortest interacting peptides will likely be 10-mers. This library was transformed into the Saccharomyces cerevisiae PJ69-α yeast strain expressing estrogen receptor (ER) α as a carboxy-terminal fusion to the Gal4 activation domain. […] Those colonies able to grow by inducing the integrated GAL4 driven HIS3 reporter were transferred into 0.25 ml of rich media in a 0.5 ml block.
Cells were pelleted by centrifugation, the media removed and the cells lysed with buffer containing 2.5% CHAPS (3-(3-Cholamidopropyl) dimethyl ammonio-1-propanesulfonate) detergent. A preliminary OD600 was determined to normalize β-galactosidase activity of each well with cell density. […] Yeast clones that generated a value equal to or greater than 0.5 were verified using the same method. Verified clones were then subjected to a final test of ligand induced β-galactosidase activity. […] Ten clones displaying the greatest ligand induced β-galactosidase activity were studied further.
Plasmids containing the peptides were isolated from the yeast cells and the amino acid sequences (Table 501) deduced by DNA sequencing of the library inserts. In Table 501, the underlined sequence is encoded by vector DNA, and the “*” represents the endogenous stop codon of the vector, and is downstream of the cloning site. Several peptides contain the vector-encoded LDLQPS (SEQ ID NO:266) sequence. B5H10 is believed to be the result of a double insert, with the second part being encoded by the complementary sequence. Peptides B1A1 and B1G8 were shorter than the other isolates because the clones encoding them carry a premature stop codon, which is inherent in the NNK library. Because of a frame shift, neither peptide B6A1 nor B3E2 contained the sequence encoded by vector DNA.
For the molecule EFCPVGLLVHLLMQ* [B1A1], the “Fold Induction (ligand induced β-galactosidase activity)” value turned out to be 11.
